Here are results for three molecules from patent US20250296996A1 (BROADWING BIO, published 2025).

The target in assay [1] is T1, P66 (rabbit ANGPTL7-his) (rabbit, UniProt G1T4P1 27-344).
T1 construct: mature; also called rabbit ANGPTL7 protein
T1 sequence: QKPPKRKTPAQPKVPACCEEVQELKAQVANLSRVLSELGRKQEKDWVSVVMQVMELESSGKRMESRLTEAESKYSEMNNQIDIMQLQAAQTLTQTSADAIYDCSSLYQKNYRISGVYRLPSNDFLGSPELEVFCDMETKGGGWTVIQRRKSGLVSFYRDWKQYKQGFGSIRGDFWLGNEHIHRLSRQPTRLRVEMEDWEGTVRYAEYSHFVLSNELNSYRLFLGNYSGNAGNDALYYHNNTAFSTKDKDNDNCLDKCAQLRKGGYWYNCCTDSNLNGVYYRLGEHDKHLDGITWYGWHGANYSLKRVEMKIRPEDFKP
Kind of assay: BLI Octet HTX; IgG on AHC sensor; P66 at 200 nM. How it is done:
(§1) Experiments were also conducted to determine the reactivity and dissociation constants (KA) of anti-ANGPTL7 antibodies with the rabbit ANGPTL7 protein. Binding experiments were performed on Octet HTX (ForteBio) in Rx PBS, pH 7.4, 0.1 mg/mi BSA, 0.05% Sodium Azide, and 0.02% Tween 20. Antibodies at a concentration of 50 nM were loaded on pre-hydrated AHC biosensors for 5 min. The loaded sensors were dipped into monovalent P66 (rabbit ANGPTL7-his) at a concentration of 200 nM for 5 min of association, followed by 10 min of dissociation. […] Responses (nm) at the end of association were also determined (Table 6).

The target of assay [2] is T2, P60 (huANGPTL7-Fibrinogen-his) (human, UniProt O43827 129-343).
T2 construct: also called human ANGPTL7 fibrinogen domain; not shown: C-terminal short linker and His tag
T2 sequence: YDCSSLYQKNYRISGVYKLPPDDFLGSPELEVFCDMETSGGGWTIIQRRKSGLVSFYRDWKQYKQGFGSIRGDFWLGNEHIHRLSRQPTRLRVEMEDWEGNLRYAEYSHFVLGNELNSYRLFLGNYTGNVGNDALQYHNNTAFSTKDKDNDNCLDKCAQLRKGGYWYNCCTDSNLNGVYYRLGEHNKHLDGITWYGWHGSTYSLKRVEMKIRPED
As to the kind of experiment: BLI Octet HTX; IgG on AHC sensor; P60 at 200 nM; 1:1 fit. The procedure: ANGPTL7 Antibody Kinetics. Experiments were conducted to determine the reactivity and dissociation constants (KD) of anti-ANGPTL7 antibodies with the human fibrinogen domain of the ANGPTL7 protein. Binding experiments were performed on Octet HTX (ForteBio) in 1×PBS, pH 7.4, 0.1 mg/ml BSA, 0.05% Sodium Azide, and 0.02 Tween 20. Antibodies at a concentration of 50 nM were loaded on pre-hydrated AHC biosensors for 5 min. The loaded sensors were dipped into monovalent P60 (huANGPTL7-Fibrinogen-his) at a concentration of 200 nM for 5 min association, followed by 10 min dissociation. […] Responses (nm) at the end of association were also determined (Table 2).

The target in assay [3] is T1, P66 (rabbit ANGPTL7-his). As to the kind of experiment: BLI Octet HTX; IgG on AHC sensor; P66 at 200 nM; 1:1 fit. How it is done: as §1
In assay [4] the target is T3, muANGPTL7-his (R&D Systems) (mouse, UniProt Q8R1Q3 22-337, limits assumed).
T3 construct: Bought protein; also called mouse ANGPTL7 protein
T3 sequence (looked up): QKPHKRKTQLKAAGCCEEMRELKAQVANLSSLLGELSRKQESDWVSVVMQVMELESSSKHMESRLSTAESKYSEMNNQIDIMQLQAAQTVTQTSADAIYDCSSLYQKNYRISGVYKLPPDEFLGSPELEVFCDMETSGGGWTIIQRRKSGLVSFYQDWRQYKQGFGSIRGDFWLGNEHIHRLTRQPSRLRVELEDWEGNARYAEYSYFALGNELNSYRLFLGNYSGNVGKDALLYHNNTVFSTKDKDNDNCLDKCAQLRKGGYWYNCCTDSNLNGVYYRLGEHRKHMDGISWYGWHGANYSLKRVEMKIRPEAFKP
As to the kind of experiment: BLI Octet HTX; IgG on AHC sensor; muANGPTL7-his at 200 nM. The procedure:
as §1, with “(KD)” for “(KA)”, “mouse” for “rabbit”, “1×PBS,” for “Rx PBS,”, “[…].” for “min.”, “muANGPTL7-his (R&D Systems)” for “P66 (rabbit ANGPTL7-his)”, “5).” for “6).”

The target in assay [5] is T3, muANGPTL7-his (R&D Systems). As to the kind of experiment: BLI Octet HTX; IgG on AHC sensor; muANGPTL7-his at 200 nM; 1:1 fit. The procedure:
as §1, with “(KD)” for “(KA)”, “mouse” for “rabbit”, “1×PBS,” for “Rx PBS,”, “[…].” for “min.”, “muANGPTL7-his (R&D Systems)” for “P66 (rabbit ANGPTL7-his)”, “5).” for “6).”

The target of assay [6] is T4, Pext-01 (huANGTPL7-FLAG multimer) (human, UniProt O43827 27-346).
T4 construct: also called PExt-1; human wild type ANGPTL7 multimer; not shown: FLAG tag
T4 sequence: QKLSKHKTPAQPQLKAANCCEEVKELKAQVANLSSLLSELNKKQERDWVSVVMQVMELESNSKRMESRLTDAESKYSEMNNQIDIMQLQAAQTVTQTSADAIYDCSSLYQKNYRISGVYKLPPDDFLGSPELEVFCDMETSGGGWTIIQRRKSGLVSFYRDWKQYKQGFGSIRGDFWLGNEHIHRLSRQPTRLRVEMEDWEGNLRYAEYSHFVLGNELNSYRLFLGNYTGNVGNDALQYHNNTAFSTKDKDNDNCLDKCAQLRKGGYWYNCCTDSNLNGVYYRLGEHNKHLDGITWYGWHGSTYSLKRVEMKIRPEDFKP
Kind of assay: BLI Octet HTX; IgG on AHC sensor; Pext-01 at 100 nM; 1:1 fit; apparent KD. How it is done:
Experiments were also conducted to determine the reactivity and dissociation constants (KD) of anti-ANGPTL7 antibodies with the human ANGPTL7 multimer protein. Binding experiments were performed on Octet HTX (ForteBio) in 1×PBS, pH 7.4, 0.1 mg/ml BSA, 0.05% Sodium Azide, and 0.02% Tween 20. Antibodies at a concentration of 50 nM were loaded on pre-hydrated AHC biosensors for 5 mi. The loaded sensors were dipped into Pext-01 (huANGTPL7-FLAG) at a concentration of 100 nM for 5 min of association, followed by 10 min of dissociation. […] Responses (nm) at the end of association were also determined (Table 7).

The target of the next assay is T5, P62 (huANGPTL7-his) (human, UniProt O43827 27-346).
T5 construct: not shown: C-terminal short linker and His tag
T5 chain: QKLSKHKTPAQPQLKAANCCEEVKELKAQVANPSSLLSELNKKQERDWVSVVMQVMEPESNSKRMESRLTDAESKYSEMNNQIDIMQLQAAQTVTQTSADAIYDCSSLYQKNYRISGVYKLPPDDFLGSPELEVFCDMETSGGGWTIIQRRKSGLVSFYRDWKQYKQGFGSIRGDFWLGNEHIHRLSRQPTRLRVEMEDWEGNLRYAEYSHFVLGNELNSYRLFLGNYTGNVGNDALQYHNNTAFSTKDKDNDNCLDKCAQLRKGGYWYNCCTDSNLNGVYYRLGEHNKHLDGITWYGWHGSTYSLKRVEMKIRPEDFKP
As to the kind of experiment: BLI Octet HTX; IgG on AHC sensor; P62 0.343-250 nM; global 1:1 fit (token printed under the kon column). How it is done: Experiments were also conducted to determine the reactivity and dissociation constants (KD) of anti-ANGPTL7 antibodies with the human ANGPTL7-his protein. Binding experiments were performed on Octet HTX (ForteBio) in 1×PBS, pH 7.4, 0.1 mg/mi BSA, 0.05% Sodium Azide, and 0.02% Tween 20. To measure monovalent binding kinetics, antibodies at a concentration of 50 nM were loaded on pre-hydrated AHC biosensors for 5 min. The loaded sensors were dipped into monovalent P62 (huANGPTL7-his) at a range of concentration from 0.343-250 nM (a serial 3-fold dilution) for 5 min association, followed by 10 min dissociation.

B1: ATX-P-429 (antibody, human IgG1, kappa, N297A, V domains shown)
VH: QVQLVQSGAEVKKPGASVKVSCKASGYTFSSYGISWVRQAPGQGLEWMGWISAYNGNTNYAQNLRGRVAMTTDTSTTTAYMELRSLRSDDTAVYYCARVSLVWFGELPRGFDYWGQGTLVTVSS
VL: not shown
notes: Full chains (VH + hIgG1-Agly-Fc)
Consider B1, for which the binding result (with P66 (rabbit ANGPTL7-his) [1]; in assay [4]) was “no binding (tested: 200 nM)” each time. In assay [2], binding was characterised by a dissociation constant (Kd) of 75.3 nM. In addition, the Response in assay [2] was 0.52 nm; with P66 (rabbit ANGPTL7-his) [3], 0.04 nm; in assay [5] it was 0 nm; in assay [6], 0.58 nm.

B2: ATX-P-435 (antibody, human IgG1, kappa, N297A, V domains shown)
VH: QLQLQESGPGLVKPSETLSLTCTVSGGSISSSSSYWGWIRQPPGKGLEWIGSIYYSGSTYSNPSLKSRVTISVDTSKNQFSLKLSSVTAADTAVYYCARQYISGTEYFQYWGQGTLVTVSS
VL: EIVLTQSPATLSLSPGERATLSCRASQSVSNYLAWYQQKPGQAPRLLIYDASNRATGIPARFSGSGSGTDFTLTISSLEPEDFAVYYCQQRSNWPSFGQGTRLEIKR
notes: as for B1
On to B2, for which the binding result (in the assay with P66 (rabbit ANGPTL7-his) [1]; in assay [4]) was “no binding (tested: 200 nM)” in each case. The molecule also displayed a Kd in assay [2] of 77 nM. Also, the Response in assay [2] was determined as 0.45 nm; with P66 (rabbit ANGPTL7-his) [3], 0.01 nm; in assay [5] it was 0.01 nm; in assay [6], 0.45 nm.

B3: ATX-P-437 (antibody, human IgG1, kappa, N297A, V domains shown)
VH: QITLKESGPTLVKPTQTLTLTCTFSGFSLSTSGVGVGWIRQPPGKALEWLALIYWNDDKQYSPSLKSRLTITKDTSKNQVVLTMTNMDPMDTATYYCAHNPDYGDFFDYWGQGTLVTVSS
VL: not shown
notes: as for B1
Consider B3, for which the results for the Kd (in assay [2]; with P66 (rabbit ANGPTL7-his) [3]) were 0.658 nM and 0.786 nM, respectively. For the same molecule, the Response turned out to be 0.6 nm in assay [2], 0.8 nm in the assay with P66 (rabbit ANGPTL7-his) [3] and 0.02 nm in assay [5]. Moreover, the binding result in assay [4] is “no binding (tested: 200 nM)”; with P62 (huANGPTL7-his), “binds”.
